For three molecules, Kd results are on record in PMC9606039 (2022).

Where a chain is given by its changes, count along the chain named. Names and notes keep the numbering of the source.

For this experiment, the target named is receptor-binding domain (RBD) (residues 319-541) of the SARS-CoV-2 spike (S) protein (SARS-CoV-2, UniProt P0DTC2 319-541). Put plainly: BLI. In general terms: BLI is a label-free optical method that tracks binding on a fibre tip over time.

B1: LY-CoV1404 Fab (Fab, V domains shown)
VH: QITLKESGPTLVKPTQTLTLTCTFSGFSLSISGVGVGWLRQPPGKALEWLALIYWDDDKRYSPSLKSRLTISKDTSKNQVVLKMTNIDPVDTATYYCAHHSISTIFDHWGQGTLVTVSS
VL: QSALTQPASVSGSPGQSITISCTATSSDVGDYNYVSWYQQHPGKAPKLMIFEVSDRPSGISNRFSGSKSGNTASLTISGLQAEDEADYYCSSYTTSSAVFGGGTKLTVL
The Kd is the equilibrium constant for the complex coming apart. Read a high Kd as a looser complex. Regarding B1, the affinity, expressed as Kd, was 1.6 nM.

B2: 2-7 D54N Fab (Fab, V domains shown)
VH: B1 VH with I31T, L39I, D56N, S72T, K83T, I87M, S101K, S103E, T104R, H108Y
VL: B1 VL with T5A, A24G, D31A, F51Y, E52D, D55K, I60V, A98T
Turning to B2, the dissociation constant Kd is above 5000 nM.

B3: 2-7 Fab (Fab, V domains shown)
VH: B1 VH with I31T, L39I, S72T, K83T, I87M, S101K, S103E, T104R, H108Y
VL: B1 VL with T5A, A24G, D31A, F51Y, E52D, D55K, I60V, A98T
The molecule B3 came in with an equilibrium dissociation constant (Kd) of 38 nM.
